The record followed here is the RNAGym collection of RNA variant scans (doi:10.7554/elife.90254).

B1: OR4K15 (parent)
chain: GUUAACGGUCAUAGGCCAUGGAAACUAGGAGCACCAUUUCGCUGCCAGUGAAGAAAUGAACAAAGAAAAUCUGGGCCAGGCAGGCAUCAAAAGAAAUAGUCUUGCGCUCAACCAGAAAGUCUGUAAUCAUUUUAAGGGUA

In this data set the parent is B1. As to the kind of experiment: self-cleavage, relative activity (ratio to wild type); higher = more cleavage; in vitro, sequencing; the parent is a self-cleaving ribozyme.
In the case of G14U A82U, the self-cleavage was found to be 0.13. The same measure for U12C A64G: 0.41; for A13G A126G: 1.04. For C16U C32G, the self-cleavage was determined as 0.15. The same measure for C17U A89G: 1.23; for G14U A92G: 1.2; for G15A A92G: 1.65.

With A13G U100C, the self-cleavage stood at 1.34.

Turning to C17U A51G, the self-cleavage was 0.85. In the case of U12C C42U, the self-cleavage worked out at 1.16. Under A13G A89C stands 0; under A13G A89G, 1.31.

Take A13G U132C: the self-cleavage was found to be 0.41. For the variant G14U A24G, the self-cleavage was found to be 1.23.

For the variant G15C A111U, the self-cleavage is 0.11. Regarding U12C U132C, the self-cleavage came out at 0.2. The same measure for U12C U132A: 0.67; for C16U A18U: 1.52. Regarding A13G A135G, the self-cleavage worked out at 0.79. Under U12C U122C stands 1.05. In the case of A13U A78G, the self-cleavage stood at 0.2. As to A13G A86U, the self-cleavage came to 1.21.

Regarding G15A U102C, the self-cleavage is 1.98. The same measure for A18C: 0.89. Under C16U A111U stands 0.16; under G14U A63G, 1.14. Under A13C U127C stands 0.65. For A13U U39C, the self-cleavage came to 1.04. As to C16A A89G, the self-cleavage was found to be 1.37. Turning to G14A A47G, the self-cleavage was determined as 0.81. Under G15A C113U stands 0.03.

As to A13G A59G, the self-cleavage came to 0.59. The same measure for G14A A54U: 1.55; for C16U A90G: 1.55; for C17U U38C: 1.28. The same measure for A13U U122C: 0.56; for A13U U122A: 1.5.

Turning to G15A A47G, the self-cleavage came out at 1.33.

For the variant U12C A126G, the self-cleavage turned out to be 0.55. The same measure for U12C A59G: 0.86; for C16A U127C: 0.13. The same measure for G14C A55G: 1.34. With C17U A69G, the self-cleavage turned out to be 0.62. Under G15A U131C stands 0.87; under C16U U132C, 1.11; under U12C G44A, 2.15. The same measure for A13G U87C: 1.5; for G14A U130C: 0.45; for C16A A60G: 0.51.

In the case of A13G C34G, the self-cleavage was 0.83.

Turning to C17U A54G, the self-cleavage worked out at 1.02. On to C16A A55G, for which the self-cleavage was determined as 0.37.

As for G14A A56G, the self-cleavage came to 1.1. On to G14A A117G, for which the self-cleavage amounted to 1.22.

Regarding C17U U37C, the self-cleavage was found to be 1. For the variant A13G A47G, the self-cleavage was determined as 0.13. With G15U A78G, the self-cleavage came to 0.14. As to G14C U103C, the self-cleavage was determined as 1.13. Consider A13U U102C, for which the self-cleavage came out at 1.56. Under A13G U39G stands 1.52; under A13G U39C, 0.92; under G14U A22G, 1.12. The same measure for A13G C71U: 0.46; for U12C A90U: 0.94. For G14A A92G, the self-cleavage came out at 0.96.

Take A13G A110G: the self-cleavage was determined as 0.13. Under C16U A27G stands 0.94.

As to A13G U139C, the self-cleavage came to 1.13. With A13G U139A, the self-cleavage was determined as 1.51. As to U12C C105U, the self-cleavage turned out to be 0.23.

As for A13G U57C, the self-cleavage was 1.18. Turning to A13G U57A, the self-cleavage is 1.24. As to G15A A111G, the self-cleavage was found to be 0.01. In the case of G14A A51G, the self-cleavage was 1.18.

In the case of A13C A116G, the self-cleavage is 0.96.

Turning to A13U A96G, the self-cleavage turned out to be 1.14. Under A13G A36G stands 0.49; under C16G G83A, 1.21. Under A13G G15U stands 1.33; under A13G A98U, 1.29. Turning to A13G U131C, the self-cleavage turned out to be 1.01. As to A13U A86G, the self-cleavage turned out to be 1.62.

Consider C16G U37C, for which the self-cleavage amounted to 1.55. The same measure for G15A A54G: 1.41. Turning to U12C A117G, the self-cleavage is 1.33.

In the case of A13G G41A, the self-cleavage was found to be 0.97. Take A13G G41C: the self-cleavage worked out at 1.02. Consider A13G G41U, for which the self-cleavage is 1.28. Under C16G A54G stands 0.89; under G14U A111G, 0.05; under A13U A98U, 2.18. A13U A90U: the self-cleavage is 1.8.

As to A13U U87A, the self-cleavage was 1.61.

Turning to C17U C109A, the self-cleavage was 0.2. Under C16U A52G stands 0.37. The same measure for G14A U70C: 0.96; for C16U U43A: 0.54; for A13G G80C: 0.19. For the variant A13G G80A, the self-cleavage came out at 0.43. Take C16G A86G: the self-cleavage is 0.51.

On to A13G U70C, for which the self-cleavage worked out at 0.87. As to C16U A82U, the self-cleavage was found to be 0.21.

As to A13G U122C, the self-cleavage is 0.76.

A13G U122A: the self-cleavage came to 0.97. Under G15C A68C stands 2.44; under G15A A116G, 0.52; under G15A A36U, 1.01. Under A13G U133C stands 1.84; under C17A A117G, 1.53; under U12G U100C, 1.76. Under A13U U130C stands 0.69; under A13G A94U, 1.4. As to A13G A94G, the self-cleavage amounted to 0.6. Under A13G G137U stands 1.06; under A13G A63G, 0.97. As for A13G A63U, the self-cleavage worked out at 0.77. In the case of U12C A116G, the self-cleavage amounted to 0.73. With U12C A125G, the self-cleavage came out at 0.5. Under U12C U37G stands 1.92; under U12G A33G, 1.04; under U12C U100A, 0.63. Under U12C A94G stands 1.34; under U12C A54U, 1.51.

As for C17A U108C, the self-cleavage worked out at 0.02.

As for C16G A135G, the self-cleavage came to 0.74. Under A13U A114U stands 0.07; under A13U A114G, 0.09; under G14A A89G, 0.65. The same measure for A13C A23G: 1.36; for U12G A60G: 1.59; for A13C G79U: 0.17. Under A13G A82G stands 0.47; under U12C U57C, 1.27; under G14A A55G, 1.58. Turning to A13U A129G, the self-cleavage was 1.57. The same measure for A13G A68G: 0.65. As to C17U A22G, the self-cleavage was determined as 1.48.

With A13G U108C, the self-cleavage stood at 0.05. Under A13G U108A stands 0.12; under A13G U108G, 0.

Regarding U12C U87A, the self-cleavage came to 0.96. Consider U12C U49C, for which the self-cleavage came to 0.44. The same measure for U12C U49G: 0.74; for G14U A116U: 0.11; for A13U A62U: 1.05. In the case of U12C A91G, the self-cleavage amounted to 0.8. The same measure for A13G A23U: 1.32. In the case of C17U A67G, the self-cleavage was determined as 1.26.

For the variant U12G A82U, the self-cleavage was determined as 0.3. The same measure for C16U U102C: 2.01; for A13U A55G: 0.85; for G15U A68C: 1.71. As for A13G G136A, the self-cleavage is 0.95. In the case of A13G A60G, the self-cleavage amounted to 1.33. The same measure for G14U A33U: 1.38; for U12C U70C: 1.25. The same measure for A13G C77U: 1.1; for G14U A118U: 0.4; for C16A A134G: 0.96. The same measure for C16G A69G: 1.02; for C17U A27C: 0.44. Take U12C U102C: the self-cleavage was 1.22. With C17U A91G, the self-cleavage was 0.42. Turning to A13U U57C, the self-cleavage was 0.64.

For the variant G14A A18U, the self-cleavage came out at 0.99.

As to C17A G20A, the self-cleavage amounted to 1.56. G14A A67G: the self-cleavage stood at 1.66.
